Source: the DeepSol protein solubility set

assay: soluble on expression in E. coli; label from the status in PepcDB or PDB records

Sequence | soluble on expression in E. coli
MKKQNPWIYLNEEEKNQILNFSESYKKFISKFKTEREVTAYALDKAKKLGFINAEEKKNLMPGDKIFYTCREKSVAFAIIGKNPIEDGMNFIVSHTDSPRLDAKPSPISEENELTFIKTNYYGGIKKYQWLSTPLSIRGVVFLKNGEKVEINIGDNENDPVFVIPDILPHLDRKIQRNKKSDEIVEGENLKILIGSLPIETKEKNKVKLATLQLIKEKYKIEEEDFVSSEIEIVPAGTAKDVGFDKALIGAYGQDDKICVFTSLESIFDLEETPNKTAICFLVDKEEIGSTGSTGLDSRYLEYFVSDMIFKIKKSEYNNLHVQKALWNSKSISADVCAAINPLFSSVHDEQNAPQLGYGIPIMKYTGHGGKSMASDADAELVSYIRQLLNKNNIAWQVATLGKVEEGGGGTVAKFLAGYGIRTIDMGPAVISMHSPMEITSKFDLYNAYLAYKAFYRE | soluble
MSLRYSKLTMLIPCALLLSACTTVTPAYKDNGTRSGPCVEGGPDNVAQQFYDYRILHRSNDITALRPYLSDKLATLLSDASRDNNHRELLTNDPFSSRTTLPDSAHVASASTIPNRDARNIPLRVDLKQGDQGWQDEVLMIQEGQCWVIDDVRYLGGSVHATAGTLRQSIENREGHHHHHH | soluble
MGSDKIHHHHHHSSSDLKDLLRERIAAKYTIDDLKDTGKKIRKTAPIESLAAVSKIDRDPVQFINSVEQNLTKSLLPMRHSRMGASQAAFFRGTAELMAYDLQQGEKSGINLLIDGDAHLQNFGFYASPERNLLFDLNDFDEAQINSFEFDIKRLLTSVYLLGDQQGFDADKLDELVQTDASIYRKTLRDLFKVGALDRFYQSTEVNHLVQSIPGAEDSALLSKFVKKATKRNNDSVIKKYTTTIDGNMRFKDDPPSSVRLDKATYQAIFDGFTQYRKSTRPDILVLLSEYRITDIIHHSVGIGSFGTNCYLVLLSGLGGSHLVLQVKEALPPRPELIPNTERITLQQEVSQGQRIIASQMILQKASDPFLGWFNVGDKSYYVRQFRDMKGSVDLEELTFPEFQYYTQITTYLLAMAHAQTPQAAVVTGYLDKSFDSAVQRWSKWYLNQVKADYSAFMRAVQTHMLA | not soluble
KGFFALSSCTLGLGLILTACGARGKFDQVDDGVIKLATSIQNKDSIAALNTIYKKYKERHPGSYPVQNFQVPGGYSGLRNDIRTRLSAKDGNNFYNI | not soluble
MGHHHHHHSHMYAEERRRQIASLTAVEGRVNVTELAGRFDVTAETIRRDLAVLDREGIVHRVHGGAVATQSFQTTELSLDTRFRSASSAKYSIAKAAMQFLPAEHGGLFLDAGTTVTALADLISEHPSSKQWSIVTNCLPIALNLANAGLDDVQLLGGSVRAITQAVVGDTALRTLALMRADVVFIGTNALTLDHGLSTADSQEAAMKSAMITNAHKVVVLCDSTKMGTDYLVSFGAISDIDVVVTDAGAPASFVEQLRERDVEVVIAE | soluble
MNGSADAGPRPRKYVFITGGVVSSLGKGILTSSLGALLRARGYRVTAIKIDPYVNVDAGTMRPYEHGEVFVTADGAETDLDIGHYERFLDMDLSRGNNLTTGQVYLSVIQKERRGEYLSQTVQVIPHITDEIKERIRKVAEEQKAEIVVVEVGGTVGDIESLPFLEAIRQFRFDEGEGNTLYLHLTLVPYLETSEEFKTKPTQHSVATLRGVGIQPDILVLRSARPVPEEVRRKVALFTNVRPGHVFSSPTVEHLYEVPLLLEEQGLGRAVERALGLEAVIPNLSFWQEAVRVLKHPERTVKIAIAGKYVKMPDAYLSLLEALRHAGIKNRARVEVKWVDAESLEAADLDEAFRDVSGILVPGGFGVRGIEGKVRAAQYARERKIPYLGICLGLQIAVIEFARNVAGLKGANSTEFDPHTPHPVIDLMPEQLEVEGLGGTMRLGDWPMRIKPGTLLHRLYGKEEVLERHRHRYEVNPLYVDGLERAGLVVSATTPGMRGRGAGLVEAIELKDHPFFLGLQSHPEFKSRPMRPSPPFVGFVEAALAYQERA | soluble
MDTTPEPFTGKMGSYILIAPDGDAAMIDSGPKTSWERVREELQSMGVRLRYVILTHIHLDHASAAGSIVRSLDTVEAVYVHPRGARHMADPERLWQASKQFLGDYADFFGKPEPVPEGKIVVPEDGEVLELPGGVKLHVIYTPGHASHHMSFYLPQEGVMFTGDSAGVSLKDDDGTLVEFPTTPPPFKPVEYINSLDAMARFKPEKLAFAHYGMRSGGMEYLRWHREDILRWVREAVEYVSRGGGDAEELMRLLADKLENAGKAYRARNPIISEFMYRGTVLGLMDTAVRGEWKRLHL | soluble
MGSDKIHHHHHHMLIIKLSAMGDSLCLFPTVRQLALAFPGATIDWLTSNRSNPALFAELPFIRTIFVTPPSLVRALTYLGGWLFRARRYDLTIDYDQYYCISELIAGMSACSAGFRTSLKGTTFSLSVEYDPLLNEKAMFRKLTERVFATYGVSIPDYRAELPELIERFVPSAQLQTLRARLKAQGKPIVGIYPGSGANATFRRWGVGNYVALIERYKDRYAFVLLGGPDERDLQADLKDIDGVFNLIDSMSFKEVAWFLKHTIDLLVGNDGGLLHVAESQAVATVGIFGPALYRKWGSSLERSIGVEKELPCRPCLKNYLGTVPSACCLGTTACLSAISTDDVAQAMHRAVHRIHVVPIAHA | not soluble
MFLKRIELQREKVLSFQEYPFSIPAIKHFQRLELKSRVTFFVGENGSGKSTLLEAIADKCEFNTAGGGRNNYYEVDASESALGDYIRLSWLPKVSNGFFLRAESFYHFASHVDEVDARHAYGGRSLHHQSHGEAFLSLFANRFNRKGIYLLDEPEAALSPRRQLSFLAILHDLVSSGDSQFIIATHSPILLGYPHATILSFDHGTIEETTYEQTEHYQLTRYFLENRERMLRELLGELEHHHHHH | not soluble
MSLSDHKIDRIRVHRVLIPGKAVHSHGIGDVAGIHAVILEVITDTGLTGWGEASPWPAFTGTAEGTVAALYTYLRPHLIGQDPVQVERHMRDAEALVVGHPEAKAALEMALLDLTGQISGLSVCELVGGRMRDDMGLSFSVANPDFGKDLEDVAAMWAEGVRIFKIKTGFKSHGFDLMRLEKLRGIYGAEADLRIDYNQGLPAYDAVRCIRDLEAFRPTFVEQPVKMHERDALAHIAHVIETPIMADESVFGVREALHGVQIRMADIFSLKVMKSGGIRRALEVSAIARAAGIEVYGGCMFETGLAHAAGAHLMAALPELRLDCEFYMSTYYASEDILTEPFPVRGGRVHVPEGPGLGVAVDPAMLAKYAQAEALGEGHHHHHH | soluble
RSDSIMILSINPKTKKTEIVSIPRDTRAEIVGRGTTEKIAHAYAYGGPNMAVKSLEKLMNVPIDHYATIDMDGLHNMIDSIGGVDVVSNDTFTVDGVRFTKGQQTHVNGDQALKFIRSRKEEGAGGDFGRQQRQQIVLEAMANKIAS | not soluble
MGGDMHEITLCQRALELIEQQAAKHGAKRVTGVWLKIGAFSCVETSSLAFCFDLVCRGSVAEGCKLHLEEQEAECWCETCQQYVTLLTQRVRRCPQCHGDMLQIVADDGLQIRRIEIDQE | not soluble
MLEQMGIAAKQASYKLAQLSSREKNRVLEKIADELEAQSEIILNANAQDVADARANGLSEAMLDRLALTPARLKGIADDVRQVCNLADPVGQVIDGGVLDSGLRLERRRVPLGVIGVIYEARPNVTVDVASLCLKTGNAVILRGGKETCRTNAATVAVIQDALKSCGLPAGAVQAIDNPDRALVSEMLRMDKYIDMLIPRGGAGLHKLCREQSTIPVITGGIGVCHIYVDESVEIAEALKVIVNAKTQRPSTCNTVETLLVNKNIADSFLPALSKQMAESGVTLHADAAALAQLQAGPAKVVAVKAEEYDDEFLSLDLNVKIVSDLDDAIAHIREHGTQHSDAILTRDMRNAQRFVNEVDSSAVYVNASTRFTDGGQFGLGAEVAVSTQKLHARGPMGLEALTTYKWIGIGDYTIRA | soluble
MGSDKIHHHHHHMILLVGGEKGGAGKSCLAQNIAVHITQKFNANVLMVDCDPQRTTSDWIQARNEDASLPAINCIQLYGKIRNDLLGLDQRFDYVIVDCGGQDNLAMRAAMSVATYVVLPLRPKRRDLKTLPHMEDMLSTCKMVNPKMVATVVMTQCPALPSQYKRILEAKEVVESFGLRVLDAVTFSRNVYDDSEEQGSSVIEIEPDGKAAAEIRAIADELFAIPPENSYELN | not soluble
DIVMTQSPDSLAVSPGERATINCKSSQNLLDSSFDTNTLAWYQQKPGQPPKLLIYWASSRESGVPDRFSGSGSGTDFTLTISSLQAEDVAVYYCQQYYSTPPTFGGGTKVEIKR | soluble
MSLLRETLESGKFAVTTEMAPPKGTDLSHLIECAKPLVGRVHAANVTDFQSAVMRATSLATCKLLKDAGLEPVIQITGRDRNRIAIQGEMLSAGVFGINNLLALTGDHTSVGDHPQAKGVFDLDSVGILQTAETLMAGTDMAGNKLKGSPDFYLGASVTPEYSPIEVQLLKMKKKIKAGAKFFQTQALYDINTMRKFRELTRDMDCKVLAGIVPLKSPGMAKFMTANVPGIFVPDEQIERLRAAGKENWVSEGIKMAGELIKQLKEEDLCDGVHIMAIGAEENIPAILDAAGL | not soluble
MEKQYRVLLYYKYVPIEDPEAFREQHLAFCKELGLLGRILVSSEGINGTVSGTVEQTEKYMETMKADPRFADMVFKIDEAEGHAFKKIFVRHKKELVTLRLEDDVDPNETTGQHLKPAEFYEKMQDPNTIVIDARNDYEYDLGHFRGAVRPDIEAFRELPEWIEEHKDMLEGKKILTYCTGGVRCEKFSGWLVKQGFEDVAQLDGGIVTYGKDPEVQGKLWDGQCYVFDERISVPVNRVEHVIVGKDYFTGEPCERYVNCANPSCNKKMICTPENEYKYMRSCSHECRTNPRNLYVKEHNMTEEEVNARLAAIETEDHAAAELEHHHHHH | soluble
MSRNLDSPVQTQMAVAVFKTPLTGASKMEGKQHHKHQHLQRQSSGRRVFVQTETGCVLGMELDRSDNVHTVKRRLQIALNFPTEESSLTYGDMVLTNDLSAVRNDSPLLLKRNFMHRSSSTPCLSPTGRDLQQKDRSGPIEILGHSDCFSIVKHMVKDIVKAMKMGVEPLPVHSGLGGAYYFRNKRGESVAIVKPTDEEPFAPNNPKGFVGKALGQPGLKSSVRVGETGFREVAAYLLDYGRFANVPPTALVKITHSVFNVNDGVKGNKPREKKLVSKIASFQKFVAHDFDASDHGTSSFPVTSVHRIGILDIRIFNTDRHGGNLLVKKLDGVGMFGQVELIPIDHGLCLPETLEDPYFEWIHWPQASLPFSDEEVDYIQSLDPVKDCDMLRRELPMIREACLRVLVLCTIFLKEASAYGLCLAEIGEMMTREFRPGEEEPSELEVVCIEAKRSVTERDVFSPRSDVVGEAEFQFDLDCDDLESVYSSKIQLTDDYFTKNPFSNGRSSLGKLEESIKEEEEDEEEEEDKTENTVPMIIMKDSFFSSAAFHDKAPSLSKLSTSMKNTHLSDTTRKNPKPLTRGKSENTSSGHKSANEQLPVSASFVKVADMKEDEWVLFLERFQELLGPAFAKRKTATLSKRQRLGTSCQF | not soluble
MSTAAETTGGDIEPWEEVTPDAARRLLVAAVEAFAERGYHATTTRDIAGRAGMSPAALYIHYKTKEELLHRISRIGHTRAVAILRSAAQGEGSAAERLADAVSSFVRWHAGRRTTARVVQYELDALGPEAREEILTLRRQCDAAVRGIIDDGVAAGEFDVPDVKGTTLAVLSLCIDVARWFNVNGPRTPDEVGALYADLVLRMVGAEPSGATAQR | not soluble
